Data taken from the supplement of paper PMC9112550, “Optimization of the antimicrobial peptide Bac7 by deep mutational scanning” (BMC Biology, 2022).

System: Escherichia coli TOP10
Assay: shrunken log2 fold change of peptide-encoding DNA abundance (4.5 h post-induction vs induction); higher = less antimicrobial activity (less host growth inhibition)
Details: time post-induction: 4.5 h; library: site-saturation at positions 5, 18, 19, 20
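Note: peptides expressed intracellularly from a pBAD plasmid library in pooled LB shake-flask culture, induced with 0.3% L-arabinose, DNA abundance read by NGS, three biological replicates, DESeq2 with apeglm shrinkage.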

Row | Sequence | shrunken log2 fold change
1 | RRIRVRPPRLPRPRPRPPKYPRP | -0.416
2 | RRIRVRPPRLPRPRPRPPLSPRP | 0.106
3 | RRIRVRPPRLPRPRPRPPLVPRP | 0.227
4 | RRIRVRPPRLPRPRPRPPMKPRP | -0.117
5 | RRIRVRPPRLPRPRPRPPMLPRP | -0.037
6 | RRIRVRPPRLPRPRPRPPMRPRP | 1.24
7 | RRIRVRPPRLPRPRPRPPNWPRP | 0.293
8 | RRIRVRPPRLPRPRPRPPPEPRP | 0.755
9 | RRIRVRPPRLPRPRPRPPPMPRP | 0.641
10 | RRIRVRPPRLPRPRPRPPPTPRP | 0.933
11 | RRIRVRPPRLPRPRPRPPPYPRP | 0.233
12 | RRIRVRPPRLPRPRPRPPSDPRP | 0.197
13 | RRIRVRPPRLPRPRPRPPSPPRP | 0.417
14 | RRIRVRPPRLPRPRPRPPTPPRP | 0.548
15 | RRIRVRPPRLPRPRPRPPTSPRP | 0.101
16 | RRIRVRPPRLPRPRPRPPVNPRP | 0.159
17 | RRIRVRPPRLPRPRPRPPVRPRP | 0.267
18 | RRIRVRPPRLPRPRPRPPWTPRP | 0.223
19 | RRIRVRPPRLPRPRPRPPYAPRP | -0.00506
20 | RRIRVRPPRLPRPRPRPPYEPRP | -0.0422
21 | RRIRVRPPRLPRPRPRPQADPRP | 0.0259
22 | RRIRVRPPRLPRPRPRPQAHPRP | -0.209
23 | RRIRVRPPRLPRPRPRPQAMPRP | -0.00096
24 | RRIRVRPPRLPRPRPRPQDLPRP | -0.0193
25 | RRIRVRPPRLPRPRPRPQFAPRP | 0.133

Row | Sequence | shrunken log2 fold change
26 | RRIRVRPPRLPRPRPRPQGEPRP | -0.227
27 | RRIRVRPPRLPRPRPRPQGGPRP | -0.0824
28 | RRIRVRPPRLPRPRPRPQIWPRP | -0.192
29 | RRIRVRPPRLPRPRPRPQKEPRP | -0.178
30 | RRIRVRPPRLPRPRPRPQKSPRP | -0.162
31 | RRIRVRPPRLPRPRPRPQMGPRP | 0.00696
32 | RRIRVRPPRLPRPRPRPQMVPRP | 0.0123
33 | RRIRVRPPRLPRPRPRPQMWPRP | 0.0478
34 | RRIRVRPPRLPRPRPRPQNIPRP | -0.504
35 | RRIRVRPPRLPRPRPRPQQCPRP | 0.145
36 | RRIRVRPPRLPRPRPRPQQTPRP | 0.0227
37 | RRIRVRPPRLPRPRPRPQQVPRP | -0.0278
38 | RRIRVRPPRLPRPRPRPQSVPRP | -0.0666
39 | RRIRVRPPRLPRPRPRPQWTPRP | -0.17
40 | RRIRVRPPRLPRPRPRPQYEPRP | -0.174
41 | RRIRVRPPRLPRPRPRPQYGPRP | -0.0699
42 | RRIRVRPPRLPRPRPRPRAPPRP | 0.831
43 | RRIRVRPPRLPRPRPRPRCGPRP | -0.0269
44 | RRIRVRPPRLPRPRPRPRCVPRP | 0.0659
45 | RRIRVRPPRLPRPRPRPREQPRP | 0.0561
46 | RRIRVRPPRLPRPRPRPRFTPRP | -0.0651
47 | RRIRVRPPRLPRPRPRPRGEPRP | 0.254
48 | RRIRVRPPRLPRPRPRPRGGPRP | 0.609
49 | RRIRVRPPRLPRPRPRPRGSPRP | 0.527
50 | RRIRVRPPRLPRPRPRPRHEPRP | 0.193

Row | Sequence | shrunken log2 fold change
51 | RRIRVRPPRLPRPRPRPRIAPRP | 0.0659
52 | RRIRVRPPRLPRPRPRPRKKPRP | 0.0671
53 | RRIRVRPPRLPRPRPRPRLFPRP | 0.447
54 | RRIRVRPPRLPRPRPRPRLKPRP | 3.13
55 | RRIRVRPPRLPRPRPRPRLLPRP | 0.0401
56 | RRIRVRPPRLPRPRPRPRLSPRP | 0.0321
57 | RRIRVRPPRLPRPRPRPRMLPRP | -0.103
58 | RRIRVRPPRLPRPRPRPRMRPRP | 0.873
59 | RRIRVRPPRLPRPRPRPRMSPRP | -0.079
60 | RRIRVRPPRLPRPRPRPRPSPRP | 0.382
61 | RRIRVRPPRLPRPRPRPRPTPRP | 0.268
62 | RRIRVRPPRLPRPRPRPRQRPRP | 0.622
63 | RRIRVRPPRLPRPRPRPRTEPRP | 0.165
64 | RRIRVRPPRLPRPRPRPRVQPRP | 0.328
65 | RRIRVRPPRLPRPRPRPRYCPRP | -0.144
66 | RRIRVRPPRLPRPRPRPRYDPRP | -0.0252
67 | RRIRVRPPRLPRPRPRPRYYPRP | -0.0159
68 | RRIRVRPPRLPRPRPRPSAHPRP | -0.0182
69 | RRIRVRPPRLPRPRPRPSANPRP | 0.122
70 | RRIRVRPPRLPRPRPRPSCTPRP | -0.175
71 | RRIRVRPPRLPRPRPRPSGQPRP | 0.0937
72 | RRIRVRPPRLPRPRPRPSHVPRP | -0.0313
73 | RRIRVRPPRLPRPRPRPSIHPRP | -0.755
74 | RRIRVRPPRLPRPRPRPSIMPRP | -0.451
75 | RRIRVRPPRLPRPRPRPSKDPRP | -0.563

Row | Sequence | shrunken log2 fold change
76 | RRIRVRPPRLPRPRPRPSKSPRP | -0.172
77 | RRIRVRPPRLPRPRPRPSNKPRP | -0.751
78 | RRIRVRPPRLPRPRPRPSPDPRP | -0.226
79 | RRIRVRPPRLPRPRPRPSPKPRP | 0.24
80 | RRIRVRPPRLPRPRPRPSQAPRP | 0.0916
81 | RRIRVRPPRLPRPRPRPSSLPRP | -0.334
82 | RRIRVRPPRLPRPRPRPSSVPRP | -0.529
83 | RRIRVRPPRLPRPRPRPSSWPRP | -0.062
84 | RRIRVRPPRLPRPRPRPSVCPRP | 0.0223
85 | RRIRVRPPRLPRPRPRPSVKPRP | -0.155
86 | RRIRVRPPRLPRPRPRPSVTPRP | -0.222
87 | RRIRVRPPRLPRPRPRPSWHPRP | -0.00555
88 | RRIRVRPPRLPRPRPRPTAGPRP | -0.0283
89 | RRIRVRPPRLPRPRPRPTARPRP | 0.293
90 | RRIRVRPPRLPRPRPRPTCAPRP | 0.579
91 | RRIRVRPPRLPRPRPRPTHTPRP | 0.0927
92 | RRIRVRPPRLPRPRPRPTINPRP | -0.286
93 | RRIRVRPPRLPRPRPRPTIRPRP | 0.0315
94 | RRIRVRPPRLPRPRPRPTKCPRP | -0.458
95 | RRIRVRPPRLPRPRPRPTLGPRP | 0.213
96 | RRIRVRPPRLPRPRPRPTMCPRP | 0.15
97 | RRIRVRPPRLPRPRPRPTMPPRP | 0.24
98 | RRIRVRPPRLPRPRPRPTNIPRP | -0.783
99 | RRIRVRPPRLPRPRPRPTNNPRP | -0.398
100 | RRIRVRPPRLPRPRPRPTNWPRP | 0.202

Row | Sequence | shrunken log2 fold change
101 | RRIRVRPPRLPRPRPRPTQEPRP | 0.124
102 | RRIRVRPPRLPRPRPRPTQRPRP | 0.565
103 | RRIRVRPPRLPRPRPRPTQVPRP | 0.103
104 | RRIRVRPPRLPRPRPRPTRVPRP | 0.0936
105 | RRIRVRPPRLPRPRPRPTSCPRP | 0.961
106 | RRIRVRPPRLPRPRPRPTSWPRP | 0.383
107 | RRIRVRPPRLPRPRPRPTTYPRP | -0.465
108 | RRIRVRPPRLPRPRPRPTVRPRP | 0.126
109 | RRIRVRPPRLPRPRPRPTWMPRP | 0.0438
110 | RRIRVRPPRLPRPRPRPVAVPRP | -0.05
111 | RRIRVRPPRLPRPRPRPVCMPRP | 0.0454
112 | RRIRVRPPRLPRPRPRPVDSPRP | 0.0147
113 | RRIRVRPPRLPRPRPRPVEEPRP | -0.143
114 | RRIRVRPPRLPRPRPRPVESPRP | -0.0208
115 | RRIRVRPPRLPRPRPRPVFQPRP | -0.092
116 | RRIRVRPPRLPRPRPRPVGIPRP | -0.0251
117 | RRIRVRPPRLPRPRPRPVGKPRP | -0.0282
118 | RRIRVRPPRLPRPRPRPVHCPRP | -0.0781
119 | RRIRVRPPRLPRPRPRPVHKPRP | 0.129
120 | RRIRVRPPRLPRPRPRPVIEPRP | 0.161
121 | RRIRVRPPRLPRPRPRPVISPRP | -0.509
122 | RRIRVRPPRLPRPRPRPVKKPRP | 0.02
123 | RRIRVRPPRLPRPRPRPVLWPRP | 0.453
124 | RRIRVRPPRLPRPRPRPVMFPRP | -0.305
125 | RRIRVRPPRLPRPRPRPVMTPRP | 0.0124

Row | Sequence | shrunken log2 fold change
126 | RRIRVRPPRLPRPRPRPVNEPRP | 0.0839
127 | RRIRVRPPRLPRPRPRPVNWPRP | 0.27
128 | RRIRVRPPRLPRPRPRPVPEPRP | 0.564
129 | RRIRVRPPRLPRPRPRPVREPRP | 0.3
130 | RRIRVRPPRLPRPRPRPVRPPRP | 0.555
131 | RRIRVRPPRLPRPRPRPVRVPRP | 0.905
132 | RRIRVRPPRLPRPRPRPVSGPRP | 0.0836
133 | RRIRVRPPRLPRPRPRPVSRPRP | 0.37
134 | RRIRVRPPRLPRPRPRPVSWPRP | 0.469
135 | RRIRVRPPRLPRPRPRPVTFPRP | -0.467
136 | RRIRVRPPRLPRPRPRPVTKPRP | 0.261
137 | RRIRVRPPRLPRPRPRPVVKPRP | -0.214
138 | RRIRVRPPRLPRPRPRPVVMPRP | -0.271
139 | RRIRVRPPRLPRPRPRPVVNPRP | -0.0959
140 | RRIRVRPPRLPRPRPRPVYLPRP | -0.108
141 | RRIRVRPPRLPRPRPRPWADPRP | -0.0322
142 | RRIRVRPPRLPRPRPRPWAFPRP | -0.189
143 | RRIRVRPPRLPRPRPRPWALPRP | -0.112
144 | RRIRVRPPRLPRPRPRPWAWPRP | -0.00558
145 | RRIRVRPPRLPRPRPRPWCAPRP | -0.0313
146 | RRIRVRPPRLPRPRPRPWCGPRP | 0.0506
147 | RRIRVRPPRLPRPRPRPWDGPRP | -0.00294
148 | RRIRVRPPRLPRPRPRPWDRPRP | 0.0372
149 | RRIRVRPPRLPRPRPRPWGDPRP | 0.148
150 | RRIRVRPPRLPRPRPRPWHIPRP | -0.127
